From paper PMC10397247

Legend:
Experiment in all cases: two-hybrid library CCmax;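 also: natural log of median RNA to DNA barcode read ratio; higher means stronger binding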
[1] = target: T1, 4H429-AA; settings: mean of both orientations
T1 chain: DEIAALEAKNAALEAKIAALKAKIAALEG

[2] = target: T2, 4H317-AA; settings: mean of both orientations
T2 chain: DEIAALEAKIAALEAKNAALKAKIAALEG

[3] = target: T3, 4H717-AA; settings: mean of both orientations
T3 chain: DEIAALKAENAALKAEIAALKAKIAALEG

[4] = target: T4, 4H2729-AA; settings: mean of both orientations
T4 chain: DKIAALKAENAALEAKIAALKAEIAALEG

[5] = target: T5, 4H605-AA; settings: mean of both orientations
T5 chain: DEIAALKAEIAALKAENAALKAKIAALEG

[6] = target: T6, 4H2949-AA; settings: mean of both orientations
T6 chain: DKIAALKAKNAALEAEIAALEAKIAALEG

[7] = target: T7, 4H2575-AA
T7 chain: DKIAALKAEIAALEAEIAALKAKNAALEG

[8] = target: T8, 4H3844-AA; settings: mean of both orientations
T8 chain: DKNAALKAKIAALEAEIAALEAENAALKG

[9] = target: T9, 4H3427-AA; settings: mean of both orientations
T9 chain: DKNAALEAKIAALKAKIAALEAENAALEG

[10] = target: T10, 4H3343-AA; settings: mean of both orientations
T10 chain: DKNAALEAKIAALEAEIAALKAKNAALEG

[11] = target: T11, 4H780-AA; settings: mean of both orientations
T11 chain: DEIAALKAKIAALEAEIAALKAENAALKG

[12] = target: T12, 4H342-AA; settings: mean of both orientations
T12 chain: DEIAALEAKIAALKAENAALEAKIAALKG

[13] = target: T13, 4H3112-AA; settings: mean of both orientations
T13 chain: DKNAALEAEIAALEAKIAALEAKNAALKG

[14] = target: T14, 4H2754-AA; settings: mean of both orientations
T14 chain: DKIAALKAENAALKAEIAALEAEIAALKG

[15] = target: T15, 4H993-AA; settings: mean of both orientations
T15 chain: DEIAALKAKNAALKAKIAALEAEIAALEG

[16] = target: T16, 4H881-AA
T16 chain: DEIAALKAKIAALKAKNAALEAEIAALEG

[17] = target: T17, 4H566-AA; settings: mean of both orientations
T17 chain: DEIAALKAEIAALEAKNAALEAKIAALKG

[18] = target: T18, 4H906-AA; settings: mean of both orientations
T18 chain: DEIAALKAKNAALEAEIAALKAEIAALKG

[19] = target: T19, 4H454-AA; settings: mean of both orientations
T19 chain: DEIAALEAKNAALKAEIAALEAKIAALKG

[20] = target: T20, 4H678-AA; settings: mean of both orientations
T20 chain: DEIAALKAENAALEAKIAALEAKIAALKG

[21] = target: T21, 4H794-AA; settings: mean of both orientations
T21 chain: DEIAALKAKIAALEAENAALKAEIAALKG

[22] = target: T22, 4H2944-AA; settings: mean of both orientations
T22 chain: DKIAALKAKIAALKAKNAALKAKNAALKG

[23] = target: T23, 4H2617-AA; settings: mean of both orientations
T23 chain: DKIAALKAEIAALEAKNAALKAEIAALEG

[24] = target: T24, 4H335-AA; settings: mean of both orientations
T24 chain: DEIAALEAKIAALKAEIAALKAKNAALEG

[25] = target: T25, 4H2642-AA; settings: mean of both orientations
T25 chain: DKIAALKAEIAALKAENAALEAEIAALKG

[26] = target: T26, 4H3627-AA; settings: mean of both orientations
T26 chain: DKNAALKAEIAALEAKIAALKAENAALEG

[27] = target: T27, 4H3655-AA; settings: mean of both orientations
T27 chain: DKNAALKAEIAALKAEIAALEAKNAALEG

[28] = target: T28, 4H2837-AA; settings: mean of both orientations
T28 chain: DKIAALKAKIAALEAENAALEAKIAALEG

[29] = target: T29, 4H3921-AA; settings: mean of both orientations
T29 chain: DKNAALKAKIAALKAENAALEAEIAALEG

[30] = target: T30, 4H3395-AA; settings: mean of both orientations
T30 chain: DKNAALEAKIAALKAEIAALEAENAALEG

[31] = target: T31, 4H2698-AA; settings: mean of both orientations
T31 chain: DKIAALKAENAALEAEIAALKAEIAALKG

[32] = target: T32, 4H3410-AA; settings: mean of both orientations
T32 chain: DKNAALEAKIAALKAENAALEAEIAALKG

[33] = target: T33, 4H891-AA; settings: mean of both orientations
T33 chain: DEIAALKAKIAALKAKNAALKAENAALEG

[34] = target: T34, 4H797-AA; settings: mean of both orientations
T34 chain: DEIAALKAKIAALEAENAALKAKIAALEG

[35] = target: T35, 4H458-AA; settings: mean of both orientations
T35 chain: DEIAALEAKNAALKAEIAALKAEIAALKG

[36] = target: T36, 4H3120-AA; settings: mean of both orientations
T36 chain: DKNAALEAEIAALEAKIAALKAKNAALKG

[37] = target: T37, 4H850-AA; settings: mean of both orientations
T37 chain: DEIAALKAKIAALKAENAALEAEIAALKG

[38] = target: T38, 4H310-AA; settings: mean of both orientations
T38 chain: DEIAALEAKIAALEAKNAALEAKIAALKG

[39] = target: T39, 4H2473-AA
T39 chain: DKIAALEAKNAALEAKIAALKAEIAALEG

[40] = target: T40, 4H536-AA; settings: mean of both orientations
T40 chain: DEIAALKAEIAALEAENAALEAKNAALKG

[41] = target: T41, 4H710-AA; settings: mean of both orientations
T41 chain: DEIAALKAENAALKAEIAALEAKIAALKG

[42] = target: T42, 4H2865-AA; settings: mean of both orientations
T42 chain: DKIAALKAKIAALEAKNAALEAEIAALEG

[43] = target: T43, 4H629-AA; settings: mean of both orientations
T43 chain: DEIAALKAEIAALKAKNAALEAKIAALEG

[44] = target: T44, 4H485-AA; settings: mean of both orientations
T44 chain: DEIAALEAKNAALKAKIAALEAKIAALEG

[45] = target: T45, 4H3590-AA; settings: mean of both orientations
T45 chain: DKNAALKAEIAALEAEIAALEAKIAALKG

[46] = target: T46, 4H94-AA; settings: mean of both orientations
T46 chain: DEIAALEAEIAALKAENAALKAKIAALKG

[47] = target: T47, 4H3130-AA; settings: mean of both orientations
T47 chain: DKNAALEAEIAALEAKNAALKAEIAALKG

[48] = target: T48, 4H2649-AA; settings: mean of both orientations
T48 chain: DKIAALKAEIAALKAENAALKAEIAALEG

[49] = target: T49, 4H909-AA; settings: mean of both orientations
T49 chain: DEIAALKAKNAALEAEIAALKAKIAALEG

[50] = target: T50, 4H570-AA; settings: mean of both orientations
T50 chain: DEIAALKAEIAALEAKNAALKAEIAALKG

[51] = target: T51, 4H3165-AA; settings: mean of both orientations
T51 chain: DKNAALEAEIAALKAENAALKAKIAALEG

[52] = target: T52, 4H3381-AA; settings: mean of both orientations
T52 chain: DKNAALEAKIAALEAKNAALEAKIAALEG

[53] = target: T53, 4H3016-AA; settings: mean of both orientations
T53 chain: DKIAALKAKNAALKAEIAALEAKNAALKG

[54] = target: T54, 4H745-AA; settings: mean of both orientations
T54 chain: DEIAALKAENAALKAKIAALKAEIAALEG

[55] = target: T55, 4H3697-AA; settings: mean of both orientations
T55 chain: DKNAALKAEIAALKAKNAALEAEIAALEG

[56] = target: T56, 4H3865-AA; settings: mean of both orientations
T56 chain: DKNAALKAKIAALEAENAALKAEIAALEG

[57] = target: T57, 4H2725-AA; settings: mean of both orientations
T57 chain: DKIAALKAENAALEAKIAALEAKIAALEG

[58] = target: T58, 4H930-AA; settings: mean of both orientations
T58 chain: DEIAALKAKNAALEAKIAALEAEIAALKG

[59] = target: T59, 4H3009-AA; settings: mean of both orientations
T59 chain: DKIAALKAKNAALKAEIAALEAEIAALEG

[60] = target: T60, 4H3753-AA; settings: mean of both orientations
T60 chain: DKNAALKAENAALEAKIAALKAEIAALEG

[61] = target: T61, APC8516-AA; settings: mean of both orientations
T61 chain: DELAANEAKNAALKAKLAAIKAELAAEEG

[62] = target: T62, APC9291-AA; settings: mean of both orientations
T62 chain: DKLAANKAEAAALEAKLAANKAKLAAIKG

[63] = target: T63, APC7524-AA; settings: mean of both orientations
T63 chain: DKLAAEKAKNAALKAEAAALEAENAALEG

[64] = target: T64, APC542-AA; settings: mean of both orientations
T64 chain: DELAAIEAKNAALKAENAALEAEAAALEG

[65] = target: T65, APC9806-AA; settings: mean of both orientations
T65 chain: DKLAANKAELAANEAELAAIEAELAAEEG

[66] = target: T66, APC8401-AA; settings: mean of both orientations
T66 chain: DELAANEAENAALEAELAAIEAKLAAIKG

[67] = target: T67, APC9182-AA; settings: mean of both orientations
T67 chain: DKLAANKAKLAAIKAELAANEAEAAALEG

[68] = target: T68, APC4336-AA
T68 chain: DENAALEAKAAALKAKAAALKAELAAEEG

[69] = target: T69, APC9141-AA; settings: mean of both orientations
T69 chain: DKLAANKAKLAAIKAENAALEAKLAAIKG

[70] = target: T70, APC5009-AA; settings: mean of both orientations
T70 chain: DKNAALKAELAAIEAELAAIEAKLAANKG

[71] = target: T71, APC6088-AA; settings: mean of both orientations
T71 chain: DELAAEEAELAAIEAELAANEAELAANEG

[72] = target: T72, APC5531-AA; settings: mean of both orientations
T72 chain: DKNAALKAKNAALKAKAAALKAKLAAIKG

B1: 4H2575-AA (peptide)
chain: DKIAALKAEIAALEAEIAALKAKNAALEG
[1]
  interaction score: -0.196
[2]
  interaction score: 0.149
[3]
  interaction score: -1.25
[4]
  interaction score: 0.467
[5]
  interaction score: -1.27
[6]
  interaction score: -0.954
[7]
  interaction score: 1.9
[8]
  interaction score: -0.532
[9]
  interaction score: 0.849
[10]
  interaction score: -0.0872
[11]
  interaction score: 0.14
[12]
  interaction score: 1.14
[13]
  interaction score: -0.383
[14]
  interaction score: -1.28
[15]
  interaction score: -0.15
[16]
  interaction score: -0.902
[17]
  interaction score: -1.21
[18]
  interaction score: -1.56
[19]
  interaction score: 1.03
[20]
  interaction score: -0.968
[21]
  interaction score: -1.27
[22]
  interaction score: -0.604
[23]
  interaction score: 0.75
[24]
  interaction score: 1.88
[25]
  interaction score: -1.2
[26]
  interaction score: 0.318
[27]
  interaction score: -0.814
[28]
  interaction score: -1.05
[29]
  interaction score: -1.45

B2: 4H2473-AA (peptide)
chain: DKIAALEAKNAALEAKIAALKAEIAALEG
[30]
  interaction score: -1.43
[31]
  interaction score: 1.68
[32]
  interaction score: -0.429
[33]
  interaction score: -1.65
[34]
  interaction score: -1.58
[35]
  interaction score: 1.39
[36]
  interaction score: -0.0619
[37]
  interaction score: -0.625
[38]
  interaction score: -0.305
[39]
  interaction score: 1.2
[40]
  interaction score: -1.67
[41]
  interaction score: 0.747
[42]
  interaction score: -0.67
[43]
  interaction score: -1.34
[44]
  interaction score: 0.85
[45]
  interaction score: 1.18
[46]
  interaction score: -0.873
[47]
  interaction score: -0.173
[48]
  interaction score: -0.843
[49]
  interaction score: 0.0276
[50]
  interaction score: 1.26
[51]
  interaction score: -1.43
[52]
  interaction score: -1.15
[53]
  interaction score: 1.52
[54]
  interaction score: -1.45
[55]
  interaction score: -1.54
[56]
  interaction score: -0.611
[57]
  interaction score: 0.607
[58]
  interaction score: -0.124
[59]
  interaction score: 2.07
[60]
  interaction score: -0.919

B3: APC4336-AA (peptide)
chain: DENAALEAKAAALKAKAAALKAELAAEEG
[61]
  interaction score: -1.7
[62]
  interaction score: -2.36
[63]
  interaction score: -1.86
[64]
  interaction score: -2.08
[65]
  interaction score: -1.53
[66]
  interaction score: -1.59
[67]
  interaction score: -1.89
[68]
  interaction score: -3.13
[69]
  interaction score: -2.48
[70]
  interaction score: 1.2
[71]
  interaction score: -1.93
[72]
  interaction score: -2.38
